Experimental data: the DeepSol protein solubility set

Assay: soluble on expression in E. coli; label from the status in PepcDB or PDB records

| Sequence | soluble on expression in E. coli |
| --- | --- |
| MAHHHHHHMPTEAHGWAALSAKSKLEPFAFQRRDVGPDDVVIAIAYCGVCHSDVHQARDEWDGSTFPMVPGHEIVGHVTKVGSEVTKYKAGDRVGVGCMVDSCMKCRQCERGLEQYCVNGASFTYNSTQQDKKTPTFGGYSDHVVVREHFVVSIPDNLDLCAAAPLLCAGVTTFSPLRYWGVKKGTRVGVVGLGGLGHMAVKLANAMGAEVTVFTRSSNKVEEAENLGAHHVVNTNNEQEMNSIQGTLDVIVDTVGMSHDLRPYMMTLDIDGKLALVGMPEHAHPPLDPRRIIASRQCVGGSNIAGMPETQELLNFCGEHNITATVEKIGIEYINEAYERILASDVRYRFVIDMASLKKE | soluble |
| MSLSLSLEVLERLVAFETVSDRPNLDMIAYVEDFLRTRGFRVHRIADPEEAKAGLFAEIGPSVDGGLLLSAHSDVVPVEGQSWCVPPFKLTRQGDKLYGRGTTDMKGFLAEMLALADVVHRRDLHAPLKLLISYDEEIGCVGISRMKDRLRPLLGRPELAIVGEPTEMQVAISHKGKRSYRADFRGEAGHSALAPRFVNALHLAVDFVTKLRQMQDEFRQDGNFNGDYDVPYTTLHVGQLHGGEALNLVPDKATLLFEFRHLAEDDPEVIEARIQQAADAVKGNYADVAHISLDALAGYPGLSVAVSEPLVSRVRSWCDGNISHVAFGTEAGVLSELGIQTVVCGPGSMAEQGHKPDEFISEHQLAACSNMLRKGAEEMLYCAEGHHHHHH | soluble |
| MSLNRLDVMILKILAEADRPMGSGRIAELIEERFGEKYSTRSIRYRLQKMEERGLIRRVRRNDRVVGAEITEWGLTMLKTETSSERVGMYISLIEEMAYRCSFDPEVMKGKVVCNISVVKREHLDDFLDAVVETYRAGISPSPLVAVKEDLSDHDVEVGEDEVAVLTVCSVTIDGVLINRGIPVTPVCGGLLYLEDGEPLGMQEYIKYEGSTVDPLHVFVAKGMTQVERVLETGTGLVPANVRYVPWAALEDVEHVERELEKADIRGIVDVPKVEGEILGIPLPPRSLGIVAYGGLVPVALLEERGISTRTYPTRTLVEYSSLEDARRYEGHHHHHH | soluble |
| MRRDQKMTELNNQIRSLQEEHGKEKLLAAATKILGKKVPTDYVRVLDPLELQASLQQIDAAVQDVLEKGKAREEAYGEKASLIKQKVKLKTAVELKEAEAFMQIQGEGRNQFAYVNDQKVALTNDTLRDAYRLHYSKEERQQLTDVEQELASIDIKIYQTKDAWETAKESADLVKAKAYVQANLLKFLA | not soluble |
| MSLRTEFGRLQEHPIVDFKRGKEVTIYLNGKPVKAYEGETVAAALYAAGVRVFSRSFRWHRPRGFFCAIGKCSACMMEVDGIPNVRTCKVYVRDGMQVRTQSGMPDAEKDVFSILDDVIDKVFPHGSHYTKFTTSKKAREFMVKRMRKFTGFGNPPKAVFQGRAELEEIETDVLVIGGGPGGMSAAINAGKYGAKVLLVDENPFLGGQLVKQTHRFFGSAKERAGTRGIKIAGILEEELNSIENVEVRRETRVFGIYNGEAGAYQRLNDDEGKLLRIKAKKIVVATGAYERTLIFENNDLPGVYGAGGVQTLMNVYGIKPGNMGLIVGSGNVGLILTYQLMQAGVNVAAIVEAMPRIGGYFVHAAKVRRLGVPIYVRHTILKAIGRKSVEGAVIAQLDDRWQPIPGTEKEIKCDFICVAVGLSPTHELLYQAGCEMKFVPELGGIVPLRTRFNETSVKGLYVAGDVAGIEEATAAIMEGRIAGIHAAVTLGYGGEEAKKELDEAVKEIEEFRAGPFGERIVCGLEKCTLESEGHHHHHH | not soluble |
| MGSDKIHHHHHHMSHWFFIINPTAGHRNGLRVWKSIQKELIKRKVEHRSFLTEHPGHAEVLARQISTIQEYKLKRLIVIGGDGTMHEVVNGLKDVDDIELSFVPAGAYNDFSRGFSIKKIDLIQEIKKVKRPLTRTFHLGSVNFLQDKSQILYFMNHIGIGFDAYVNKKAMEFPLRRVFLFLRLRFLVYPLSHLHASATFKPFTLACTTEDETREFHDVWFAVVSNHPFYGGGMKAAPLANPREKTFDIVIVENQPFLKKYWLLCLMAFGKHTKMDGVTMFKAKDITFYTKDKIPFHADGEIMGTTPFRLASSPSPLRIKT | not soluble |
| VTALDWRSALTADEQRSVRALVTATTAVDGVAPVGEQVLRELGQQRTEHLLVAGSRPGGPIIGYLNLSPPRGAGGAMAELVVHPQSRRRGIGTAMARAALAKTAGRNQFWAHGTLDPARATASALGLVGVRELIQMRRPLRDIPEPTIPDGVVIRTYAGTSDDAELLRVNNAAFAGHPEQGGWTAVQLAERRGEAWFDPDGLILAFGDSPRERPGRLLGFHWTKVHPDHPGLGEVYVLGVDPAAQRRGLGQMLTSIGIVSLARRLGGRKTLDPAVEPAVLLYVESDNVAAVRTYQSLGFTTYSVDTAYALAGTDN | not soluble |
